Source: article PMC8203837, “Optogenetically-induced multimerization of the dopamine transporter increases uptake and trafficking to the plasma membrane” (The Journal of Biological Chemistry, 2021)

B1: YFP–DAT (dopamine transporter with N-terminal YFP) (natural protein, UniProt Q01959 1-620, looked up)
chain: MSKSKCSVGLMSSVVAPAKEPNAVGPKEVELILVKEQNGVQLTSSTLTNPRQSPVEAQDRETWGKKIDFLLSVIGFAVDLANVWRFPYLCYKNGGGAFLVPYLLFMVIAGMPLFYMELALGQFNREGAAGVWKICPILKGVGFTVILISLYVGFFYNVIIAWALHYLFSSFTTELPWIHCNNSWNSPNCSDAHPGDSSGDSSGLNDTFGTTPAAEYFERGVLHLHQSHGIDDLGPPRWQLTACLVLVIVLLYFSLWKGVKTSGKVVWITATMPYVVLTALLLRGVTLPGAIDGIRAYLSVDFYRLCEASVWIDAATQVCFSLGVGFGVLIAFSSYNKFTNNCYRDAIVTTSINSLTSFSSGFVVFSFLGYMAQKHSVPIGDVAKDGPGLIFIIYPEAIATLPLSSAWAVVFFIMLLTLGIDSAMGGMESVITGLIDEFQLLHRHRELFTLFIVLATFLLSLFCVTNGGIYVFTLLDHFAAGTSILFGVLIEAIGVAWFYGVGQFSDDIQQMTGQRPSLYWRLCWKLVSPCFLLFVVVVSIVTFRPPHYGAYIFPDWANALGWVIATSSMAMVPIYAAYKFCSLPGSFREKLAYAIAPEKDRELVDRGEVRQFTLRHWLKV
notes: dopamine transporter (DAT); also called YFPsynDAT; source: HEK293 cells stably expressing YFP–DAT, in or on cells; not shown: YFP, N-terminal, kept

Assays:
[1] = target: Cry2–mCh–DAT, optogenetic fusion chimera of cryptochrome 2 and DAT with an mCherry fluorescent reporter (Arabidopsis | not stated) (UniProt Q01959)
[2] = target: Cry2–mCh–DAT, optogenetic fusion chimera of cryptochrome 2 and DAT with an mCherry fluorescent reporter (Arabidopsis | not stated) (UniProt Q01959); test: cell-surface biotinylation, SDS-PAGE and Western blot; HEK293 cells transfected with Cry2–DAT, kept in the dark (control); sulfo-NHS-SS-biotin at 4 °C, NeutrAvidin beads, 4–15% gradient gel
[3] = target: the molecule itself; test: cross-linking; as a1, but cells treated with 10 μM DA for 0.5, 2, 10, 30 or 60 min before copper phenanthroline cross-linking
[4] = target: the molecule itself; test: cross-linking; as a1, but cells treated with 10 μM METH for 0.5, 2, 10, 30 or 60 min before copper phenanthroline cross-linking
[5] = target: the molecule itself; test: cross-linking; HEK293 cells stably expressing YFP–DAT, vehicle control; copper phenanthroline (100 μM CuSO4, 400 μM 1,10-phenanthroline) in PBS 10 min at RT, NEM quench, membrane enrichment (Mem-PER Plus), samples not heated, Western blot

Row | Molecule | IDT307 uptake in differentiated SH-SY5Y cells expressing Cry2–DAT, blue light against no blue light [1] | stoichiometry N [2] | stoichiometry N [3] | stoichiometry N [4] | stoichiometry N [5]
1 | Cry2–mCh–DAT, optogenetic fusion chimera of cryptochrome 2 and DAT with an mCherry fluorescent reporter (from UniProt Q01959 1-620) | 2.5 fold | 2 |  |  | 
2 | B1 |  |  | 4 | 3 | 2
